Measured values published in the RNAGym collection of RNA variant scans (doi:10.1073/pnas.2313332121).
Fewer inactive variants are shown than the library holds.

B1: TPR 5TU (parent)
chain: GGAUCUUCUCGAUCUAACAAAAAAGACAAAUCUGCCACAAAGCUUGAGAGCAUCUUCGGAUGCAGAGGCGGCAGCCUUCGGUGGCGCGAUAGCGCCAACGUUCUCAACUAUGACACGCAAAACGCGUGCUCCGUUGAAUGGAGUUUAUCAUG

Variants of: B1
Assay: polymerase ribozyme fitness, log enrichment relative to wild type (log ratio); higher = more active; in vitro selection for triplet polymerase activity
Summary of the method: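 A single round of triplicate in vitro selection, including frozen incubation at −7 °C, was applied to PCR-built, transcribed mutant libraries of each subunit of a heterodimeric triplet polymerase ribozyme. Illumina sequencing of input and output libraries retained genotypes with ≥10 input reads and ≥1 read per output. Fitness is the base-2 logarithm of genotype enrichment divided by wild-type enrichment, from inverse-variance-weighted replicate averages.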

Variant | polymerase ribozyme fitness (log ratio)
G46A U55G C79A C85G A97U | ≤ -4.2
A47G G50C U82G | ≤ -4.2
A47C C95U C116A | -0.555
G46C A47G G71A C85U G88C | ≤ -4.2
G46A G81A G136A U146A | 0.373
A47C G65C G88A C103A | ≤ -4.2
U45G C57U G70C C76A A91G C93A | ≤ -4.2
G46C G50U G68A C76A C85U U130G | ≤ -4.2
G46C A52G C63A G71A A110G A113U | ≤ -4.2
U45G C85G | -3.44
G46C C54U A66G G94A C95A G143A | ≤ -4.2
U45G U55G A91C U101A A107G | ≤ -4.2
A47C A66C G83C U104C G126C U130C C132G A138C | ≤ -4.2
A47C U127C | -1.6
A47G A49U C103G | ≤ -4.2
G46U A52G C93G | -4.03
A47C U53A G81A U104G | -1.12
A47C G48C G74C U78G G143U | ≤ -4.2
A47C A91C G112C G133C C149U | ≤ -4.2
U45G C54U A110G | ≤ -4.2
G46U C87A G88A G143U U148A | ≤ -4.2
U45G G83A | -0.848
A47G G50A C85U C99A G124C U127G | ≤ -4.2
G46A U55A G58C G84C | -2.84

Variant | polymerase ribozyme fitness (log ratio)
U45G C103A A150U | ≤ -4.2
U45G G48U A60U C72A G80C C96A U102G | ≤ -4.2
U45A G58C | -2.28
U45A G58A | -1.48
A47G C63G G92U C93U | -1.34
U45C G80C C85U C87G G92A U144G | ≤ -4.2
A47G C54G | -0.785
U45G G84U A113U | -4.1
G46C U102C G136U | ≤ -4.2
G46C C76U | ≤ -4.2
U45G G48A G88C A106G | ≤ -4.2
A47G U53A | -0.375
A47G G50U G94U G141C | -2.22
U45A G140U | -4.19
G46A G84A | -2.74
G46A C69A | -3.61
U45C G70C A91G C99U G136C | ≤ -4.2
G46U A52C A89U G94A G133C | ≤ -4.2
A47C C93A A107G G140U | ≤ -4.2
G46A G59C C76U C96U C116U | ≤ -4.2
G46A G58A G83C | -1.17
U45G C76A G86A G141C C149G | ≤ -4.2
G46C G136A | -0.148
A47C A52G U77G G94U C99U | ≤ -4.2

Variant | polymerase ribozyme fitness (log ratio)
A47C A60G C85A | -2.83
G46C C75U G88A A106U C116G | ≤ -4.2
U45A G133A U134C | ≤ -4.2
U45A U55G U56G C87U G92C | -3.98
U45G G84U | -1.97
U45C A49C G70C G83C A137C U144C | ≤ -4.2
A47G C87A G126A | ≤ -4.2
G46U G84C C87G A150G | ≤ -4.2
A47G C75G A107U U135A U148C | ≤ -4.2
G46A G68C A89C G124A | ≤ -4.2
G46U G88U | ≤ -4.2
A47G A52G U56A C87G | ≤ -4.2
U45C G48C C99A G143A U148C | ≤ -4.2
U45A G84U C108G | ≤ -4.2
A47G A49U G50C C57U A107C A150C | ≤ -4.2
G46A G84A A119C G136A A150G | -3.68
U45G G59C C99A U151G | ≤ -4.2
A47C G48A G124U | -3.59
G46C G59A U82A C85G A110C A113U G126U G128A | ≤ -4.2
U45C C93A | -3.52
A47C G62A G70A U82A C85U G86A G152C | ≤ -4.2
A47C C57A G84C G86U U146C C149U | ≤ -4.2
G46A C96U U101A | -2.59
U45G G68U | ≤ -4.2

Variant | polymerase ribozyme fitness (log ratio)
A47G A91G A97G G112C | ≤ -4.2
A47G U90A C95A A98G A138U A147C | ≤ -4.2
G46U C99A | -3.99
A47C G86A C149U | -1.64
A47C C85A C96U A97U | ≤ -4.2
U45A U102C C105U A119C G143A | ≤ -4.2
G46C C87U A98G G117U A142U | ≤ -4.2
A47G C114U | -2.4
A47C G74U A107G A122U | ≤ -4.2
U45G A115G | -1.98
A47C C85U | -1.58
A47G G59C G92U C99A C118G | -3.37
U45G C93A A113U C116U | ≤ -4.2
U45G G128U | -3.86
A47C C69U G80C | ≤ -4.2
A47G C93G U144A | -2.58
G46A C99A C114A C129A G141A | ≤ -4.2
U45A U55A U61A C63A U77A C131A A150G U151A | ≤ -4.2
A47C U61A G140U U145G | ≤ -4.2
A47C G50C | -4.1
U45A G126A | -2.15
U45A G126U | -3.51
U45A U77G G83C U146A | ≤ -4.2
A47G A52U G68U C79A C93U C99A G141C A142G G143U | ≤ -4.2

Variant | polymerase ribozyme fitness (log ratio)
A47G G140A | -3.51
A47G C87U | 0.257
G46A U55A | -0.993
G46C G50U A52C A60U G80C C95U A150G | ≤ -4.2
G46C G70A C75G A119C | ≤ -4.2
A47C G84A | -0.485
G46A U56G A91G U148A | ≤ -4.2
A47G U55A A91G | -2.78
A47C C57A G94A U144G | 1.12
U45C U55A | -1.08
G46C A49C U56A C57U G62A C63A C69U G86C C99U G141C U145G C149U A150U | ≤ -4.2
G46A U53A G59A A66C U90C A91U C108G G133C | ≤ -4.2
G46U U56A | -0.107
U45G C76A C129G U134G | ≤ -4.2
A47C A66U C103G | ≤ -4.2
U45G A91C U101G A147C | ≤ -4.2
G46A U135G | -3.27
A47G C123U C129G | -3.23
G46A U53A G83A U90A G92A U134A | ≤ -4.2
A47G C51U C87U | -0.414
A47C U56A C87A C93G A121U C132G G143A U144C | ≤ -4.2
U45C C57G G59U A66U G94A | ≤ -4.2
U45G C51U C95A C125U | -3.64
A47C G81C C99A U134G | -4.06

Variant | polymerase ribozyme fitness (log ratio)
U45A G83U C85G C95U | ≤ -4.2
U45A G50U G83U C87U C103U C105A | ≤ -4.2
U45A G84A | -3.44
G46U C72A U90G A97G G100A U104A A107G G124C | ≤ -4.2
U45A U56G A73G C96G C99G A107U G140A | ≤ -4.2
U45G C54U A119U U146G | -2.19
A47C A49C U144G | -4
G46C C96U A98U A106G | -0.573
A47G U78A G81U G86C U127G A138C | ≤ -4.2
A47C G48U C76G C96U A113C | ≤ -4.2
U45A G88C A113C U134A | ≤ -4.2
A47C G141A | -1.5
A47C G126A | 0.0505
A47C C54U G83U A142G | -2.18
G46C G59C G88A | ≤ -4.2
A47G U56A U134G | -2.17
G46A G50C U56A G83U A147C | ≤ -4.2
G46U G59C C85A A115U | -4.01
U45A G88C | ≤ -4.2
A47G A91G A97G A98C U134G U139A | ≤ -4.2
A47C A73G | -0.266
G46A C54G C95U | -2.17
U45G A66C C76A G86U C96U | ≤ -4.2
U45G G86U C87A | ≤ -4.2

Variant | polymerase ribozyme fitness (log ratio)
G46C C105G | 1.29
G46C U55G G58U | -0.983
U45A C116U | -2.44
G46U C54U A73U | -3.31
A47C U55A A60G | -0.228
G46A C129U | -3.61
G46A A47G G48A G50C G136A | ≤ -4.2
A47G G83C U134A G140U | -4.17
A47G U61A | -1.41
A47C G62U C99G G143U | ≤ -4.2
G46C C96A C123G | -1.48
A47C U53C C57A C72G A73C U78C C79U C96G C129A A150G | ≤ -4.2
A47G A52G G58A A60G G62C U78G G88C | ≤ -4.2
U45A U82G C129A U139A U145G | ≤ -4.2
A47C C63U C79A G80A G86C U102C | ≤ -4.2
A47C A89G C118A G133U | ≤ -4.2
A47C G83U | -1.01
G46A C76A C96U G141C | ≤ -4.2
U45A G59U G74U A121G G141A | ≤ -4.2
G46C C57A A66U A113C | ≤ -4.2
A47C C87U | -0.109
A47C U77G U130G | ≤ -4.2
A47G C87U C99U | -1.24
